Source: patent US20150344570A1 (published 2015)

T1: human FcγRIIb extracellular domain with C-terminal His tag (human, UniProt P31994 43-217)
T1 construct: extracellular domain; also called FcgRIIb; 2b; not shown: His tag attached to the C terminus
T1 sequence (looked up): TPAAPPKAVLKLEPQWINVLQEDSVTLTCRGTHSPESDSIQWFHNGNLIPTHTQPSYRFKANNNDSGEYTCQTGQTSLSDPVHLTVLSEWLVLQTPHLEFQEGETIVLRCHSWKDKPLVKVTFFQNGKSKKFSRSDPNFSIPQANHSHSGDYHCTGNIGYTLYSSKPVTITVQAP


Target: T2, FcγRIa (human, UniProt P12314 16-292)
T2 construct: extracellular domain; Soluble extracellular domain with C-terminal His tag, used as analyte; also called FcgRI; CD64; not shown: His tag at the C terminus
T2 sequence (P12314 16-292): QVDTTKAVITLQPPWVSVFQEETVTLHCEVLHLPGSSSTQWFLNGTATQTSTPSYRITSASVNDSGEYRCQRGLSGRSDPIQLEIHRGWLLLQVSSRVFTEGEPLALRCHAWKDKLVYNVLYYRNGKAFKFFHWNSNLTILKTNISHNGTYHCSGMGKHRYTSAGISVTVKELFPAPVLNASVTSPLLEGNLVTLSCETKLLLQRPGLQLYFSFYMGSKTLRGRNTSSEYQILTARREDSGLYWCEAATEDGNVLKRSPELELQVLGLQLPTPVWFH
Experiment: SPR (Biacore), captured antibody, FcγR as analyte, relative binding
Protocol: The heterodimerized antibodies He Abs in which one of the H chains was introduced with an alteration were assayed for their binding activities to each activating FcγR and inhibitory FcγR according to the method described in Example 4. […] The activating FcγRs in FIGS. 26, 27, 28, and 29 are FcγRIa, FcγRIIa (R), FcγRIIa (H), and FcγRIIIa, respectively.
Analysis of interaction between objective antibody and the FcγR was carried out using Biacore T100 (GE Healthcare). HBS-EP+ (GE Healthcare) was used as the running buffer, and the measurement temperature was set to 25° C. Chips produced by immobilizing the antigen peptide by the amine coupling method to a Series S Sencor Chip CM5 (GE Healthcare), or alternatively, chips produced by allowing preliminarily biotinylated antigen peptides to interact with and immobilize onto a Series S Sensor Chip SA (certified) (GE Healthcare) were used. Antibodies of interest were captured onto an antigen peptide-immobilized chip, and allowed to interact to each FcγR diluted with running buffer. To regenerate and repeatedly use the chip, the antibodies captured on the chip were washed off by reacting 10 mM glycine-HCl, pH 1.5.

| Binder | He/Con_1a |
| --- | --- |
| GpH7-A5/GpH7-B3 variant A327_12R/GpL16-k0 (antibody, human IgG1, kappa, He Ab: mutation in one H chain only; also called He Ab) heavy 1: not shown heavy 2: not shown light: DIVMTQSPLSLPVTPGEPASISCQASESLVHSNRNTYLHWYLQKPGQSPQLLIYKVSNRFSGVPDRFSGSGSGTDFTLKISRVEAEDVGVYYCSQNTHVPPTFGQGTKVEIERTVAAPSVFIFPPSDEQLKSGTASVVCLLNNFYPREAKVQWKVDNALQSGNSQESVTEQDSKDSTYSLSSTLTLSKADYEKHKVYACEVTHQGLSSPVTKSFNRGEC | 86.7 % of GpH7-A5/GpH7-B3/GpL16-k0 |

Target: FcγRIIa H (human, UniProt P12318 34-217)
Sequence (P12318 34-217): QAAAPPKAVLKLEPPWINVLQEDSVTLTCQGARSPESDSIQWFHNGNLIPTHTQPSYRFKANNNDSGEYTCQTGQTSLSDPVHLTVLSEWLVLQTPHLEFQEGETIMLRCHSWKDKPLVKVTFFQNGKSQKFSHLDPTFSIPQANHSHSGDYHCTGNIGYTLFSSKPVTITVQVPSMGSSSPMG
Experiment: SPR Biacore, captured antibody, FcγR analyte; vs GpH7-B3/GpL16-k0 = 100

| Binder | Ho/Con_2aH |
| --- | --- |
| GpH7-B3 variant A327_09D/GpL16-k0 (antibody, human IgG1, kappa, also called Ho Ab A327_09D) heavy: not shown light: DIVMTQSPLSLPVTPGEPASISCQASESLVHSNRNTYLHWYLQKPGQSPQLLIYKVSNRFSGVPDRFSGSGSGTDFTLKISRVEAEDVGVYYCSQNTHVPPTFGQGTKVEIERTVAAPSVFIFPPSDEQLKSGTASVVCLLNNFYPREAKVQWKVDNALQSGNSQESVTEQDSKDSTYSLSSTLTLSKADYEKHKVYACEVTHQGLSSPVTKSFNRGEC | 90.1 % of control |
| GpH7-B3 variant A330_19Q/GpL16-k0 (antibody, human IgG1, kappa, also called Ho Ab A330_19Q) heavy: not shown light: DIVMTQSPLSLPVTPGEPASISCQASESLVHSNRNTYLHWYLQKPGQSPQLLIYKVSNRFSGVPDRFSGSGSGTDFTLKISRVEAEDVGVYYCSQNTHVPPTFGQGTKVEIERTVAAPSVFIFPPSDEQLKSGTASVVCLLNNFYPREAKVQWKVDNALQSGNSQESVTEQDSKDSTYSLSSTLTLSKADYEKHKVYACEVTHQGLSSPVTKSFNRGEC | 99.2 % of control |
| GpH7-B3 variant E333_13S/GpL16-k0 (antibody, human IgG1, kappa, also called Ho Ab E333_13S) heavy: not shown light: DIVMTQSPLSLPVTPGEPASISCQASESLVHSNRNTYLHWYLQKPGQSPQLLIYKVSNRFSGVPDRFSGSGSGTDFTLKISRVEAEDVGVYYCSQNTHVPPTFGQGTKVEIERTVAAPSVFIFPPSDEQLKSGTASVVCLLNNFYPREAKVQWKVDNALQSGNSQESVTEQDSKDSTYSLSSTLTLSKADYEKHKVYACEVTHQGLSSPVTKSFNRGEC | 94.6 % of control |
| GpH7-B3 variant E333_14T/GpL16-k0 (antibody, human IgG1, kappa, also called Ho Ab E333_14T) heavy: not shown light: DIVMTQSPLSLPVTPGEPASISCQASESLVHSNRNTYLHWYLQKPGQSPQLLIYKVSNRFSGVPDRFSGSGSGTDFTLKISRVEAEDVGVYYCSQNTHVPPTFGQGTKVEIERTVAAPSVFIFPPSDEQLKSGTASVVCLLNNFYPREAKVQWKVDNALQSGNSQESVTEQDSKDSTYSLSSTLTLSKADYEKHKVYACEVTHQGLSSPVTKSFNRGEC | 90.4 % of control |
| GpH7-B3 variant G236_14T/GpL16-k0 (antibody, human IgG1, kappa, also called Ho Ab G236_14T) heavy: not shown light: DIVMTQSPLSLPVTPGEPASISCQASESLVHSNRNTYLHWYLQKPGQSPQLLIYKVSNRFSGVPDRFSGSGSGTDFTLKISRVEAEDVGVYYCSQNTHVPPTFGQGTKVEIERTVAAPSVFIFPPSDEQLKSGTASVVCLLNNFYPREAKVQWKVDNALQSGNSQESVTEQDSKDSTYSLSSTLTLSKADYEKHKVYACEVTHQGLSSPVTKSFNRGEC | 94.2 % of control |
| GpH7-B3 variant K326_12R/GpL16-k0 (antibody, human IgG1, kappa, also called Ho Ab K326_12R) heavy: not shown light: DIVMTQSPLSLPVTPGEPASISCQASESLVHSNRNTYLHWYLQKPGQSPQLLIYKVSNRFSGVPDRFSGSGSGTDFTLKISRVEAEDVGVYYCSQNTHVPPTFGQGTKVEIERTVAAPSVFIFPPSDEQLKSGTASVVCLLNNFYPREAKVQWKVDNALQSGNSQESVTEQDSKDSTYSLSSTLTLSKADYEKHKVYACEVTHQGLSSPVTKSFNRGEC | 98.8 % of control |
| GpH7-B3 variant E333_08L/GpL16-k0 (antibody, human IgG1, kappa, also called Ho Ab E333_08L) heavy: not shown light: DIVMTQSPLSLPVTPGEPASISCQASESLVHSNRNTYLHWYLQKPGQSPQLLIYKVSNRFSGVPDRFSGSGSGTDFTLKISRVEAEDVGVYYCSQNTHVPPTFGQGTKVEIERTVAAPSVFIFPPSDEQLKSGTASVVCLLNNFYPREAKVQWKVDNALQSGNSQESVTEQDSKDSTYSLSSTLTLSKADYEKHKVYACEVTHQGLSSPVTKSFNRGEC | 96.5 % of control |
| GpH7-B3 variant I336_18N/GpL16-k0 (antibody, human IgG1, kappa, also called Ho Ab I336_18N) heavy: not shown light: DIVMTQSPLSLPVTPGEPASISCQASESLVHSNRNTYLHWYLQKPGQSPQLLIYKVSNRFSGVPDRFSGSGSGTDFTLKISRVEAEDVGVYYCSQNTHVPPTFGQGTKVEIERTVAAPSVFIFPPSDEQLKSGTASVVCLLNNFYPREAKVQWKVDNALQSGNSQESVTEQDSKDSTYSLSSTLTLSKADYEKHKVYACEVTHQGLSSPVTKSFNRGEC | 94.3 % of control |
| GpH7-B3 variant I336_03V/GpL16-k0 (antibody, human IgG1, kappa, also called Ho Ab I336_03V) heavy: not shown light: DIVMTQSPLSLPVTPGEPASISCQASESLVHSNRNTYLHWYLQKPGQSPQLLIYKVSNRFSGVPDRFSGSGSGTDFTLKISRVEAEDVGVYYCSQNTHVPPTFGQGTKVEIERTVAAPSVFIFPPSDEQLKSGTASVVCLLNNFYPREAKVQWKVDNALQSGNSQESVTEQDSKDSTYSLSSTLTLSKADYEKHKVYACEVTHQGLSSPVTKSFNRGEC | 90.4 % of control |
| GpH7-B3 variant G236_04F/GpL16-k0 (antibody, human IgG1, kappa, also called Ho Ab G236_04F) heavy: not shown light: DIVMTQSPLSLPVTPGEPASISCQASESLVHSNRNTYLHWYLQKPGQSPQLLIYKVSNRFSGVPDRFSGSGSGTDFTLKISRVEAEDVGVYYCSQNTHVPPTFGQGTKVEIERTVAAPSVFIFPPSDEQLKSGTASVVCLLNNFYPREAKVQWKVDNALQSGNSQESVTEQDSKDSTYSLSSTLTLSKADYEKHKVYACEVTHQGLSSPVTKSFNRGEC | 63.2 % of control |
| GpH7-B3 variant K326_01G/GpL16-k0 (antibody, human IgG1, kappa, also called Ho Ab K326_01G) heavy: not shown light: DIVMTQSPLSLPVTPGEPASISCQASESLVHSNRNTYLHWYLQKPGQSPQLLIYKVSNRFSGVPDRFSGSGSGTDFTLKISRVEAEDVGVYYCSQNTHVPPTFGQGTKVEIERTVAAPSVFIFPPSDEQLKSGTASVVCLLNNFYPREAKVQWKVDNALQSGNSQESVTEQDSKDSTYSLSSTLTLSKADYEKHKVYACEVTHQGLSSPVTKSFNRGEC | 98.2 % of control |
| GpH7-B3 variant E333_04F/GpL16-k0 (antibody, human IgG1, kappa, also called Ho Ab E333_04F) heavy: not shown light: DIVMTQSPLSLPVTPGEPASISCQASESLVHSNRNTYLHWYLQKPGQSPQLLIYKVSNRFSGVPDRFSGSGSGTDFTLKISRVEAEDVGVYYCSQNTHVPPTFGQGTKVEIERTVAAPSVFIFPPSDEQLKSGTASVVCLLNNFYPREAKVQWKVDNALQSGNSQESVTEQDSKDSTYSLSSTLTLSKADYEKHKVYACEVTHQGLSSPVTKSFNRGEC | 93.6 % of control |
| GpH7-B3 variant I336_10E/GpL16-k0 (antibody, human IgG1, kappa, also called Ho Ab I336_10E) heavy: not shown light: DIVMTQSPLSLPVTPGEPASISCQASESLVHSNRNTYLHWYLQKPGQSPQLLIYKVSNRFSGVPDRFSGSGSGTDFTLKISRVEAEDVGVYYCSQNTHVPPTFGQGTKVEIERTVAAPSVFIFPPSDEQLKSGTASVVCLLNNFYPREAKVQWKVDNALQSGNSQESVTEQDSKDSTYSLSSTLTLSKADYEKHKVYACEVTHQGLSSPVTKSFNRGEC | 93.4 % of control |
| GpH7-B3 variant G236_15Y/GpL16-k0 (antibody, human IgG1, kappa, also called Ho Ab G236_15Y) heavy: not shown light: DIVMTQSPLSLPVTPGEPASISCQASESLVHSNRNTYLHWYLQKPGQSPQLLIYKVSNRFSGVPDRFSGSGSGTDFTLKISRVEAEDVGVYYCSQNTHVPPTFGQGTKVEIERTVAAPSVFIFPPSDEQLKSGTASVVCLLNNFYPREAKVQWKVDNALQSGNSQESVTEQDSKDSTYSLSSTLTLSKADYEKHKVYACEVTHQGLSSPVTKSFNRGEC | 80.4 % of control |
| GpH7-B3 variant K326_07I/GpL16-k0 (antibody, human IgG1, kappa, also called Ho Ab K326_07I) heavy: not shown light: DIVMTQSPLSLPVTPGEPASISCQASESLVHSNRNTYLHWYLQKPGQSPQLLIYKVSNRFSGVPDRFSGSGSGTDFTLKISRVEAEDVGVYYCSQNTHVPPTFGQGTKVEIERTVAAPSVFIFPPSDEQLKSGTASVVCLLNNFYPREAKVQWKVDNALQSGNSQESVTEQDSKDSTYSLSSTLTLSKADYEKHKVYACEVTHQGLSSPVTKSFNRGEC | 78.1 % of control |

Target: T1, human FcγRIIb extracellular domain with …
Experiment: SPR (Biacore T100), antibody captured on antigen peptide chip, FcγRIIb as analyte; relative binding

| Binder | He/Con_2b |
| --- | --- |
| GpH7-A5/GpH7-B3 variant T335_09D/GpL16-k0 (He Ab) (antibody, human IgG1, kappa, Anti-glypican-3 IgG1; mutation only in the GpH7-B3-derived H chain; also called T335D heterodimerized antibody) heavy 1: not shown heavy 2: not shown light: DIVMTQSPLSLPVTPGEPASISCQASESLVHSNRNTYLHWYLQKPGQSPQLLIYKVSNRFSGVPDRFSGSGSGTDFTLKISRVEAEDVGVYYCSQNTHVPPTFGQGTKVEIERTVAAPSVFIFPPSDEQLKSGTASVVCLLNNFYPREAKVQWKVDNALQSGNSQESVTEQDSKDSTYSLSSTLTLSKADYEKHKVYACEVTHQGLSSPVTKSFNRGEC | 108 % of control GpH7-A5/GpH7-B3/GpL16-k0 (=100) |
| GpH7-A5/GpH7-B3 variant Y300_19Q/GpL16-k0 (He Ab) (antibody, human IgG1, kappa, Anti-glypican-3 IgG1; mutation only in the GpH7-B3-derived H chain; also called Y300Q heterodimerized antibody) heavy 1: not shown heavy 2: not shown light: DIVMTQSPLSLPVTPGEPASISCQASESLVHSNRNTYLHWYLQKPGQSPQLLIYKVSNRFSGVPDRFSGSGSGTDFTLKISRVEAEDVGVYYCSQNTHVPPTFGQGTKVEIERTVAAPSVFIFPPSDEQLKSGTASVVCLLNNFYPREAKVQWKVDNALQSGNSQESVTEQDSKDSTYSLSSTLTLSKADYEKHKVYACEVTHQGLSSPVTKSFNRGEC | 108 % of control GpH7-A5/GpH7-B3/GpL16-k0 (=100) |
| GpH7-A5/GpH7-B3 variant T335_08L/GpL16-k0 (He Ab) (antibody, human IgG1, kappa, Anti-glypican-3 IgG1; mutation only in the GpH7-B3-derived H chain; also called T335L heterodimerized antibody) heavy 1: not shown heavy 2: not shown light: DIVMTQSPLSLPVTPGEPASISCQASESLVHSNRNTYLHWYLQKPGQSPQLLIYKVSNRFSGVPDRFSGSGSGTDFTLKISRVEAEDVGVYYCSQNTHVPPTFGQGTKVEIERTVAAPSVFIFPPSDEQLKSGTASVVCLLNNFYPREAKVQWKVDNALQSGNSQESVTEQDSKDSTYSLSSTLTLSKADYEKHKVYACEVTHQGLSSPVTKSFNRGEC | 104 % of control GpH7-A5/GpH7-B3/GpL16-k0 (=100) |
